B1: B. subtilis ScpA (natural protein, Bacillus subtilis, UniProt P35154 1-251, looked up)
chain: MEEYQVKIDTFEGPLDLLLHLINRLEIDIYDIPVAKITEQYLLYVHTMRVLELDIASEYLVMAATLLSIKSRMLLPKQEEELFEDELLEEEDPREELIEKLIEYRKYKDAAKDLKEREEERQKSFTKPPSDLSEYAKEVKQSEQKLSVTVYDMIGAFQKVLKRKKINRPMETTITRQDIPIEARMNEIVHSLKSRGTRINFMDLFPYEQKEHLVVTFLAVLELMKNQLVLIEQEHNFSDIYITGSESIHGA
notes: ScpA (kleisin of the Smc-ScpAB complex), Bacillus subtilis; gene cloned into pET21a; expected mass printed as 31 kDa; source: E. coli Rosetta (DE3), purified (Ni-NTA, MonoQ)
B2: B. subtilis ScpB (natural protein, Bacillus subtilis, UniProt P35155 1-197, looked up)
chain: MGLDIVNWKAIVEALLYAAGDEGLTKKQLLTVLEIEEPELNTIMADVADEYRGDTRGIELIEYADTYMLSTKKDFAPYLKKLIEVPSKGLSQASLEVLAIVSYKQPITRAEIEEIRGVKSERILHSLVAKALLCEVGRADGPGRAILYGTTPTFLEQFGLKTLDELPPLPENAEEDVLQEEADLFFENFNQTFEDIK
notes: ScpB (KITE protein of the Smc-ScpAB complex), Bacillus subtilis; gene cloned into pET21a; expected mass printed as 23.2 kDa; source: E. coli Rosetta (DE3), purified (Ni-NTA, MonoQ)
B3: B. subtilis Smc (enzyme, Bacillus subtilis, UniProt P51834 1-1186, looked up)
chain: MFLKRLDVIGFKSFAERISVDFVKGVTAVVGPNGSGKSNITDAIRWVLGEQSARSLRGGKMEDIIFAGSDSRKRLNLAEVTLTLDNDDHFLPIDFHEVSVTRRVYRSGESEFLINNQPCRLKDIIDLFMDSGLGKEAFSIISQGKVEEILSSKAEDRRSIFEEAAGVLKYKTRKKKAENKLFETQDNLNRVEDILHELEGQVEPLKIQASIAKDYLEKKKELEHVEIALTAYDIEELHGKWSTLKEKVQMAKEEELAESSAISAKEAKIEDTRDKIQALDESVDELQQVLLVTSEELEKLEGRKEVLKERKKNAVQNQEQLEEAIVQFQQKETVLKEELSKQEAVFETLQAEVKQLRAQVKEKQQALSLHNENVEEKIEQLKSDYFELLNSQASIRNELQLLDDQMSQSAVTLQRLADNNEKHLQERHDISARKAACETEFARIEQEIHSQVGAYRDMQTKYEQKKRQYEKNESALYQAYQYVQQARSKKDMLETMQGDFSGFYQGVKEVLKAKERLGGIRGAVLELISTEQKYETAIEIALGASAQHVVTDDEQSARKAIQYLKQNSFGRATFLPLSVIRDRQLQSRDAETAARHSSFLGVASELVTFDPAYRSVIQNLLGTVLITEDLKGANELAKLLGHRYRIVTLEGDVVNPGGSMTGGAVKKKNNSLLGRSRELEDVTKRLAEMEEKTALLEQEVKTLKHSIQDMEKKLADLRETGEGLRLKQQDVKGQLYELQVAEKNINTHLELYDQEKSALSESDEERKVRKRKLEEELSAVSEKMKQLEEDIDRLTKQKQTQSSTKESLSNELTELKIAAAKKEQACKGEEDNLARLKKELTETELALKEAKEDLSFLTSEMSSSTSGEEKLEEAAKHKLNDKTKTIELIALRRDQRIKLQHGLDTYERELKEMKRLYKQKTTLLKDEEVKLGRMEVELDNLLQYLREEYSLSFEGAKEKYQLETDPEEARKRVKLIKLAIEELGTVNLGSIDEFERVNERYKFLSEQKEDLTEAKNTLFQVIEEMDEEMTKRFNDTFVQIRSHFDQVFRSLFGGGRAELRLTDPNDLLHSGVEIIAQPPGKKLQNLNLLSGGERALTAIALLFSILKVRPVPFCVLDEVEAALDEANVFRFAQYLKKYSSDTQFIVITHRKGTMEEADVLYGVTMQESGVSKVISVKLEETKEFVQ
notes: Smc (ATPase of the Smc-ScpAB complex), Bacillus subtilis; gene cloned into pET21a; expected mass printed as 135.5 kDa; source: E. coli Rosetta (DE3), purified (HiTrap Q flow-through, Ni-NTA)

Assays:
Test in all cases: cross-linking; purified proteins in various combinations incubated with or without 0.4% formaldehyde in Hepes 50 mM pH 7.5, NaCl 100 mM, DTT 0.1 mM, 20% glycerol; denatured at 65°C with SDS and BME; SDS-PAGE; bands identified by mass spectrometry (peptide fingerprinting)
[1] = biological target: B3; conditions: both partners purified
[2] = biological target: the molecule itself
[3] = biological target: B1; conditions: both partners purified

## B1
[1]
  binding result: binds

## B2
[2]
  stoichiometry N: 2
[3]
  binding result: binds

## B3
[2]
  stoichiometry N: 2
